The record followed here is patent US20120237518A1 (Kyowa Kirin, published 2012).

As a reminder, the koff is the first-order rate constant of dissociation. The kon is a measure of how fast the partners come together.

Experiment [1] deals with T1, recombinant human Trop-2/Fc/His fusion protein (manufactured by R&D) (human, UniProt P09758 27-274, limits assumed).
T1 construct: Bought reagent; also called Trop-2/Fc/His chimeric protein; recombinant Trop-2
T1 sequence: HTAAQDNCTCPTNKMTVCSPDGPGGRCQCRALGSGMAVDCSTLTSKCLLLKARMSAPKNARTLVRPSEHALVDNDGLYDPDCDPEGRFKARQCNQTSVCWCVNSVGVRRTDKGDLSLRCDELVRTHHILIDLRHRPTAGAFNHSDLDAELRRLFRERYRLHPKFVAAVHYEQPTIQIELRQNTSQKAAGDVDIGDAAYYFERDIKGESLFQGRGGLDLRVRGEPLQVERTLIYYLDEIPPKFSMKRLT
In words: SPR (Biacore T100), Trop-2/Fc/His captured by Tetra-His antibody, antibody as analyte, Bivalent Analyte model, mean of duplicates. The method, then: (§1) All the operations described below were carried out using Biacore T100 (manufactured by GE Healthcare Bio-sciences). Tetra-His antibody (manufactured by Qiagen) was immobilized so as to be 12,000 RU (resonance unit) on the CM5 sensor chip (manufactured by GE Healthcare Bio-sciences) using Amine Coupling Kit (manufactured by GE Healthcare Bio-sciences). After recombinant Trop-2/Fc/His fusion proteins (manufactured by R&D) were allowed to be captured on the sensor chip, anti-Trop-2 antibodies which were diluted in five-fold steps, starting from a concentration of 5,000 ng/ml were flowed at 30 μL/min, followed by obtaining sensorgrams at each concentration.
(§2) Using the software for analysis accompanied with the equipment, the results were analyzed based on Bivalent Analyte model to obtain the binding rate constant and the dissociation rate constant for binding of each antibody to a recombinant human Trop-2/Fc/His fusion protein.
(§3) In the same manner described in Example 3(2), the affinity of KM4591 and six kinds of KM4097 humanized antibodies (HV0LV0, HV3aLV0, HV4LV0, HV5LV0, HV10LV2 and HV10LV4) obtained in Example 8 to human Trop-2/Fc/His fusion proteins (manufactured by R&D) were evaluated.

In experiment [2] the target is T1, recombinant human Trop-2/Fc/His fusion …. Kind of experiment: SPR (Biacore T100) on captured Trop-2/Fc/His; summary sentence of Table 6. As to the method:
as §1, §2, §3

Experiment [3] shares this target. Kind of experiment: SPR (Biacore T100), Trop-2/Fc/His captured by Tetra-His antibody, antibody as analyte, Bivalent Analyte model, mean of duplicates. The method, then: as §1, §2
(1) Binding Activity of Anti-Trop-2 Human Chimeric Antibody to Recombinant Human Trop-2 using Biacore In the same manner described in Example 3, the affinity of KM4591 and cAR47A6.4.2-P to human Trop-2/Fc/His fusion proteins (manufactured by R&D) were measured. ka, kd, and KD (kd/ka) of each antibody are shown in Table 5 (the mean values of duplicate experiments).
This is another data set of the same source.

For experiment [4], the target named is T2, Trop-2/FLAG/Fc, fusion protein of Trop-2 extracellular region, FLAG tag and Fc (human).
T2 construct: Expressed in HEK293F; The encoding DNA carries a secretion signal
In words: Western blot, KM4590 as primary antibody, Trop-2/FLAG/Fc in lane 1, non-reducing and reducing SDS-PAGE [a]. The method, then:
Each protein of Trop-2/FLAG/Fc, Mutant A, Mutant B, or Mutant C prepared in this Example 2 was electrophoresed under reducing condition (treatment of samples in the presence of 10 mmol/l DTT at 95° C. for 5 minutes) or non-reducing condition (treatment of samples in the absence of DTT at room temperature for 10 minutes) by an SDS-PAGE method. The proteins in the gel were transferred to polyvinylidene difluoride (PVDF) membrane at 200 mA for 1 hour using a semi-dry method.
After the blocking of the PVDF membrane was carried out using PBS containing 5% BSA at room temperature for 1 hour, the PVDF membrane was soaked in the primary antibody solution which was prepared with TBST [an aqueous solution which was prepared by diluting Tris buffered saline (10× concentration) (pH 7.4) manufactured by Nakarai Tesque Inc.) ten-fold and further adding 0.1% concentration of 0.05% polyoxyethylene (20) sorbitan monolaurate (manufactured by Wako Pure Chemical Industries, Ltd., equivalent to ICI Inc.'s trademark Tween 20)] comprising 0.1% BSA to react for 1 hour at room temperature or overnight at 4° C.
Using the imaging system LAS4000 mini (manufactured by Fujifilm), the luminescence images were obtained. […]

Experiment [5] deals with T1, recombinant human Trop-2/Fc/His fusion …. Kind of experiment: SPR (Biacore T100), Trop-2/Fc/His captured by Tetra-His antibody on CM5 chip, antibody as analyte, Bivalent Analyte model, mean of duplicates. The method, then:
as §1, §2
(In general: Surface plasmon resonance follows binding to a sensor surface in real time, without labels.)

B1: KM4097 humanized antibody HV0LV0 (antibody, V domains shown)
VH: QVQLVQSGAEVKKPGASVKVSCKASGYTFTIYWLGWVRQAPGQGLEWMGNIFPGSAYINYNEKFKGRVTITADTSTSTAYMELSSLRSEDTAVYYCAREGSNSGYWGQGTLVTVSS
VL: DIVMTQSPDSLAVSLGERATINCKSSQSLLNSGNQQNYLAWYQQKPGQPPKLLIYGASTRESGVPDRFSGSGSGTDFTLTISSLQAEDVAVYYCQSDHIYPYTFGQGTKLEIK
notes: Expressed from pKANTEX93 (human constant regions) in FUT8 knockout CHO cells; no fucose attached
Turning to B1, in experiment [1], the Kd worked out at 0.53 nM, the dissociation rate constant (koff) turned out to be 0.00016 s⁻¹ and the kon came to 330000 M⁻¹ s⁻¹. Besides, the Kd in experiment [2] is at most 1 nM.

B2: KM4097 humanized antibody HV3aLV0 (antibody, V domains shown)
VH: QVQLVQSGPEVKKPGASVKVSCKASGYTFTIYWLGWVRQAPGQGLEWMGNIFPGSAYINYNEKFKGKVTITADTSTSTAYMELSSLRSEDTAVYFCAREGSNSGYWGQGTLVTVSS
VL: DIVMTQSPDSLAVSLGERATINCKSSQSLLNSGNQQNYLAWYQQKPGQPPKLLIYGASTRESGVPDRFSGSGSGTDFTLTISSLQAEDVAVYYCQSDHIYPYTFGQGTKLEIK
notes: as for B1
For B2, in experiment [1], the Kd came to 0.3 nM, the koff came out at 0.00016 s⁻¹ and the on-rate constant (kon) came out at 506000 M⁻¹ s⁻¹. The Kd in experiment [2] is at most 0.5 nM.

B3: KM4097 humanized antibody HV4LV0 (antibody, V domains shown)
VH: QVQLVQSGPEVKKPGASVKVSCKASGYTFTIYWLGWVKQAPGQGLEWIGNIFPGSAYINYNEKFKGRVTITADTSTSTAYMELSSLRSEDTAVYFCAREGSNSGYWGQGTLVTVSS
VL: DIVMTQSPDSLAVSLGERATINCKSSQSLLNSGNQQNYLAWYQQKPGQPPKLLIYGASTRESGVPDRFSGSGSGTDFTLTISSLQAEDVAVYYCQSDHIYPYTFGQGTKLEIK
notes: as for B1
With B3, in experiment [1], the Kd turned out to be 0.42 nM, the off-rate constant (koff) turned out to be 0.000126 s⁻¹ and the kon was 335000 M⁻¹ s⁻¹. In experiment [2], the Kd was at most 0.5 nM.

B4: KM4097 humanized antibody HV10LV2 (antibody, V domains shown)
VH: QVQLVQSGPEVVKPGASVKISCKASGYTFTIYWLGWVKQAPGQGLEWIGNIFPGSAYINYNEKFKGKATLTADTSTSTAYMELSSLRSEDTAVYFCAREGSNSGYWGQGTLLTVSS
VL: DIVMTQSPDSLAVSLGERVTINCKSSQSLLNSGNQQNYLAWYQQKPGQPPKLLIYGASTRESGVPDRFSGSGSGTDFTLTISSVQAEDVAVYYCQSDHIYPYTFGQGTKLEIK
notes: as for B1
On to B4, for which, in experiment [1], the Kd worked out at 0.4 nM, the off-rate constant (koff) stood at 0.000148 s⁻¹ and the on-rate constant (kon) came out at 375000 M⁻¹ s⁻¹. In experiment [2], the Kd was at most 0.5 nM.

B5: KM4097 humanized antibody HV5LV0 (antibody, V domains shown)
VH: QVQLVQSGAEVKKPGASVKVSCKASGYTFTIYWLGWVKQAPGQGLEWIGNIFPGSAYINYNEKFKGKATITADTSTSTAYMELSSLRSEDTAVYFCAREGSNSGYWGQGTLVTVSS
VL: DIVMTQSPDSLAVSLGERATINCKSSQSLLNSGNQQNYLAWYQQKPGQPPKLLIYGASTRESGVPDRFSGSGSGTDFTLTISSLQAEDVAVYYCQSDHIYPYTFGQGTKLEIK
notes: as for B1
For B5, in experiment [1], the Kd amounted to 0.49 nM, the koff was 0.00019 s⁻¹ and the kon was found to be 383000 M⁻¹ s⁻¹. For the same molecule, in experiment [2], the Kd is at most 0.5 nM.

B6: cAR47A6.4.2-P, defucosylated human IgG1 chimeric antibody of AR47A6.4.2 (antibody, V domains shown)
VH: QIQLVQSGPELKKPGETVKISCKASGYTFTNYGMNWVKQAPGKGLKWMGWINTKTGEPTYAEEFKGRFAFSLETSASTAYLQINNLKKEDTATYFCGRGGYGSSYWYFDVWGAGTTVTVSS
VL: DIVMTQSHKFMSTSVGDRVSITCKASQDVSIAVAWYQQKPGQSPKVLIYSASYRYTGVPDRFTGSGSGTDFTFTISRVQAEDLAVYYCQQHYITPLTFGAGTKLELK
modifications: No core fucose on the Fc N-glycan (made in FUT8 knockout CHO/DG44 cells); the letters do not carry this.
With B6, in experiment [3], the Kd was found to be 1.01 nM, the koff was 0.000218 s⁻¹ and the on-rate constant (kon) was 221000 M⁻¹ s⁻¹.

B7: anti-Trop-2 human chimeric antibody KM4590 (antibody, human IgG1, V domains shown)
VH: QVQLQQSGPELVRPGTSVRISCKASGYTFTIYWLGWVKQRPGHGLEWIGNIFPGSAYINYNEKFKGKATLTADTSSSTAYMQLSSLTSEDSAVYFCAREGSNSGYWGQGTTLTVSS
VL: DIVMTQSPSSLSVSAGEKVTMTCKSSQSLLNSGNQQNYLAWYQQKPGQPPKLLIYGASTRESGVPDRFTGSGSGTDFTLTINSVQAEDLAVYYCQSDHIYPYTFGGGTKLEIK
notes: KM4097 variable regions joined to human IgG1 H chain constant region and human kappa L chain constant region (pKANTEX93); made in CHO/DG44 cells, fucose content 100%
Consider B7, for which the binding result in experiment [4] was “binds”.

B8: KM4097 humanized antibody HV10LV4 (antibody, V domains shown)
VH: QVQLVQSGPEVVKPGASVKISCKASGYTFTIYWLGWVKQAPGQGLEWIGNIFPGSAYINYNEKFKGKATLTADTSTSTAYMELSSLRSEDTAVYFCAREGSNSGYWGQGTLLTVSS
VL: DIVMTQSPDSLAVSAGERVTMNCKSSQSLLNSGNQQNYLAWYQQKPGQPPKLLIYGASTRESGVPDRFSGSGSGTDFTLTISSVQAEDVAVYYCQSDHIYPYTFGQGTKLEIK
notes: as for B1
Take B8: in experiment [1], the Kd was 0.37 nM, the koff came out at 0.000116 s⁻¹ and the on-rate constant (kon) stood at 342000 M⁻¹ s⁻¹. Also, the Kd in experiment [2] was at most 0.5 nM.

B9: anti-Trop-2 human chimeric antibody KM4591 (antibody, human IgG1, V domains shown)
VH: QVQLQQSGPELVRPGTSVRISCKASGYTFTIYWLGWVKQRPGHGLEWIGNIFPGSAYINYNEKFKGKATLTADTSSSTAYMQLSSLTSEDSAVYFCAREGSNSGYWGQGTTLTVSS
VL: DIVMTQSPSSLSVSAGEKVTMTCKSSQSLLNSGNQQNYLAWYQQKPGQPPKLLIYGASTRESGVPDRFTGSGSGTDFTLTINSVQAEDLAVYYCQSDHIYPYTFGGGTKLEIK
notes: Same polypeptides as KM4590 (human IgG1, kappa), made in FUT8 knockout CHO/DG44 cells, fucose content 0%
Regarding B9, in experiment [3], the Kd amounted to 0.143 nM, the off-rate (koff) amounted to 5.8e-05 s⁻¹ and the kon worked out at 416000 M⁻¹ s⁻¹. Also, in experiment [1], the Kd was determined as 0.36 nM, the koff came out at 0.000113 s⁻¹ and the kon is 323000 M⁻¹ s⁻¹.

B10: anti-Trop-2 mouse monoclonal antibody KM4097 (antibody, V domains shown)
VH: QVQLQQSGPELVRPGTSVRISCKASGYTFTIYWLGWVKQRPGHGLEWIGNIFPGSAYINYNEKFKGKATLTADTSSSTAYMQLSSLTSEDSAVYFCAREGSNSGYWGQGTTLTVSS
VL: DIVMTQSPSSLSVSAGEKVTMTCKSSQSLLNSGNQQNYLAWYQQKPGQPPKLLIYGASTRESGVPDRFTGSGSGTDFTLTINSVQAEDLAVYYCQSDHIYPYTFGGGTKLEIK
Take B10: in experiment [5], the Kd amounted to 0.261 nM, the koff is 0.000101 s⁻¹ and the kon worked out at 389000 M⁻¹ s⁻¹.
